Legend:
Ab2 fibrils [1] = tested on: T1, Ab2 fibrils; assay: Fibril incubation with plasma, quantitative MS/MS of bound proteins; format: binding, human; settings: 50:1 w/w plasma protein:fibril
T1 construct: Two structurally distinct fibrils of the Aβ(1–40) peptide associated with AD
Procedure: (§1) Plasma and CSF solutions were centrifuged (40,000 g, 20 min) to remove any aggregates. The protein concentration was determined using 280 nm absorbance assuming 1 Abs = 1 mg/mL. […] Control samples (without fibril material) were prepared similarly. All samples were incubated at room temperature for one hour under gentle agitation. Fibrils and fibril-bound proteins were pelleted by centrifugation at 17,000 g for 30 minutes. The supernatant (175 μL) was removed and the aggregate was re-suspended in 175 μL PBS and pelleted again before further preparation for gel analysis and spin-filter assisted digest for quantitative MS/MS.
(§2) The fibril-protein pellets were transferred to spin-filters (0.22 μm), washed twice in PBS (100 μL) and once in 1 M NaCl (100 μL). The fibrils and fibril-bound proteins were dissolved by one-hour incubation in 100 μL 6 M guanidinium chloride followed by elution from the spin-filter. The eluted proteins were loaded onto a 3 kDa MWCO filter unit for filter-assisted unfolding, reduction, alkylation, and trypsin digestion. In brief, samples were washed twice in 8 M urea, once in 8 M urea with 50 mM DTT, once in 8 M urea with 50 mM iodoaceteamide, and twice in 8 M Urea. The filter units were dried by centrifugation (14,000 g in 30 minutes) after every addition. Trypsin digestion was carried out with 0.25 μg sequencing grade trypsin from Sigma Aldrich in 50 mM ammonium bicarbonate overnight at 37 °C. The tryptic peptides were collected by centrifugation, acidified with TFA (0.1%) and micro-purified using POROS R2 column material (Applied Biosystems) packed in P200 pipette tips (Sarstedt).
(§3) LC-MS/MS analyses were performed on an EASY-nLC II system (Thermo Fisher Scientific) connected to a TripleTOF 5600+ mass spectrometer (Sciex) equipped with a NanoSpray III source (Sciex) and operated under Analyst TF 1.6.0 control.
(§4) The micro-purified tryptic peptides were dissolved in 0.1% formic acid, injected and trapped on an in-house packed trap column (2 cm × 100 μm I.D) with RP ReproSil-Pur C18-AQ 3 μm resin (Dr. Maisch GmbH). Peptides were eluted from the trap column and separated on a 15 cm analytical column (75 μm i.d.) packed in-house in a pulled emitter with RP ReproSil-Pur C18-AQ 3 μm resin (Dr. Maisch GmbH). Elution from the analytical column was performed with a linear gradient from 5% to 35% phase B (90% acetonitrile with 0.1% formic acid) over 20 min for protein identification and 50 min for quantitative analysis, respectively.
(§5) All samples were analysed three times, yielding nine MS/MS experiments for each fibril for both plasma and CSF. For the area-based extracted ion chromatogram (XIC) quantification, the acquisition method was set up as an information-dependent acquisition (IDA) experiment collecting up to 25 MS/MS spectra in each 1.6 sec cycle using an exclusion window of 6 sec.
(§6) XIC quantification was based on the average ion intensity of the three most abundant peptides for each protein. Only proteins quantified in at least four out of nine MS/MS experiments per fibril were included in the quantification. The total ion scores were visualized after grouping the proteins according to function (Figure S11).
(§7) For each MS/MS experiment, the ion intensities of the individual proteins were normalized to the total ion intensity of that MS/MS experiment to achieve a relative protein composition. The contribution of each protein was averaged over all nine MS/MS experiments (Tables 1 and 2).

C-36 fibrils [2] = biological target: T2, C-36 fibrils (Homo sapiens, UniProt P01009); assay: as above; format: binding; set-up: key to Identification status of plasma protein bound: C-36: *: Identified, but not quantified; —: Not identified in any of the samples; settings: for Relative composition of plasma proteins bound: C-36: 50:1 w/w plasma protein:fibril
T2 construct: the 36 residue C-terminal fragment of α1-antitrypsin (C-36)
T2 sequence (P01009 383-418 limits assumed): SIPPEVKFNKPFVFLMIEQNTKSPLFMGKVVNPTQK
Procedure: as §1, §2, §3, §4, §5, §6, §7

glucagon fibrils [3] = biological target: T3, glucagon fibrils (Homo sapiens, UniProt P01275); assay: Fibril incubation with CSF, quantitative MS/MS of bound proteins; format: binding; settings: 4:1 w/w CSF protein:fibril
T3 construct: fibrils of the peptide hormone glucagon
T3 sequence (P01275 53-81 limits assumed): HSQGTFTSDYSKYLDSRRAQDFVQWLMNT
Procedure: as §1, §2, §3, §4, §5, §6, §7

[4] = tested on: fibril systems (Ab1, Ab2, glucagon, αSN and C-36); assay: Fibril incubation with plasma, quantitative MS/MS, span over the fibril systems; format: binding, human
Procedure: (§8) Plasma and CSF solutions were centrifuged (40,000 g, 20 min) to remove any aggregates. The protein concentration was determined using 280 nm absorbance assuming 1 Abs = 1 mg/mL. […] Control samples (without fibril material) were prepared similarly. All samples were incubated at room temperature for one hour under gentle agitation. Fibrils and fibril-bound proteins were pelleted by centrifugation at 17,000 g for 30 minutes. The supernatant (175 μL) was removed and the aggregate was re-suspended in 175 μL PBS and pelleted again before further preparation for gel analysis and spin-filter assisted digest for quantitative MS/MS.
The fibril-protein pellets were transferred to spin-filters (0.22 μm), washed twice in PBS (100 μL) and once in 1 M NaCl (100 μL). The fibrils and fibril-bound proteins were dissolved by one-hour incubation in 100 μL 6 M guanidinium chloride followed by elution from the spin-filter. […]
as §4, with “Peptides were eluted from the trap column and separated on a 15 cm analytical column (75 μm i.d.) packed in-house in a pulled emitter with RP ReproSil-Pur C18-AQ 3 μm resin (Dr. Maisch GmbH).” left out
as §5, with “sec. […]” for “sec.”
XIC quantification was based on the average ion intensity of the three most abundant peptides for each protein. Only proteins quantified in at least four out of nine MS/MS experiments per fibril were included in the quantification. […]

FAS4-AD aggregates [5] = tested on: T4, FAS4-AD aggregates; assay: Fibril incubation with plasma, quantitative MS/MS of bound proteins; format: binding, human; set-up: key to Identification status of plasma protein bound: FAS4-AD: *: Identified, but not quantified; —: Not identified in any of the samples; settings: for Relative composition of plasma proteins bound: FAS4-AD: 50:1 w/w plasma protein:fibril
T4 construct: aggregates of a mutated version of the FAS1-4 domain of TGFBIp
Procedure: as §1, §2, §3, §4, §5, §6, §7

αSN fibrils [6] = biological target: T5, αSN fibrils (Homo sapiens, UniProt P37840); assay: Fibril incubation with CSF, quantitative MS/MS of bound proteins; format: binding; set-up: key to Identification status of CSF protein bound: αSN: *: Identified, but not quantified; —: Not identified in any of the samples
Procedure: as §1, §2, §3, §4, §5, §6, §7

Ab1 fibrils [7] = tested on: T6, Ab1 fibrils; assay: Fibril incubation with plasma, quantitative MS/MS of bound proteins; format: binding, human; settings: 50:1 w/w plasma protein:fibril
T6 construct: Synthetic amyloid β peptide 1–40 was purchased from Caslo Aps (Lyngby, Denmark); purchased Caslo Aps (Lyngby, Denmark); host or cells: synthetic peptide
Procedure: as §8, §2, §3, §4, §5, §6, §7

glucagon fibrils [8] = biological target: T3, glucagon fibrils; assay: as above; format: binding; settings: 50:1 w/w plasma protein:fibril
Procedure: as §1, §2, §3, §4, §5, §6, §7

Ab2 fibrils [9] = tested on: T1, Ab2 fibrils; assay: Fibril incubation with CSF, quantitative MS/MS of bound proteins; format: binding, human; set-up: key to Identification status of CSF protein bound: Ab2: *: Identified, but not quantified; —: Not identified in any of the samples
Procedure: as §1, §2, §3, §4, §5, §6, §7

C-36 fibrils [10] = biological target: T2, C-36 fibrils; assay: as above; format: binding; set-up: key to Identification status of CSF protein bound: C-36: *: Identified, but not quantified; —: Not identified in any of the samples
Procedure: as §1, §2, §3, §4, §5, §6, §7

αSN fibrils [11] = biological target: T5, αSN fibrils; assay: Fibril incubation with plasma, quantitative MS/MS of bound proteins; format: binding; set-up: key to Identification status of plasma protein bound: αSN: *: Identified, but not quantified; —: Not identified in any of the samples; settings: for Relative composition of plasma proteins bound: αSN: 50:1 w/w plasma protein:fibril
Procedure: as §1, §2, §3, §4, §5, §6, §7

FAS4-AD aggregates [12] = tested on: T4, FAS4-AD aggregates; assay: Fibril incubation with CSF, quantitative MS/MS of bound proteins; format: binding, human; set-up: key to Identification status of CSF protein bound: FAS4-AD: *: Identified, but not quantified; —: Not identified in any of the samples; settings: symbol cells
Procedure: as §1, §2, §3, §4, §5, §6, §7

Ab1 fibrils [13] = tested on: T6, Ab1 fibrils; assay: as above; format: binding, human; settings: 4:1 w/w CSF protein:fibril
Procedure: as §1, §2, §3, §4, §5, §6, §7

How did the “Relative composition of plasma proteins bound: Ab2” value (Ab2 fibrils [1]) turn out when “Apolipoprotein A-I: plasma/CSF protein bound to fibrils” was run?
The value was 14.9 ± 7.0 % of total protein.

What about the “Relative composition of plasma proteins bound: C-36” value (C-36 fibrils [2]) of the same substance?
Its value is 13.5 ± 0.5 % of total protein.

And the “Relative composition of CSF proteins bound: Glucagon” value (glucagon fibrils [3])?
Its value is 2.6 ± 0.8 % of total protein.

What about the “contribution to the fibril interactomes” value [4] of the same substance?
Its value is 8.8–14.9%.

What about the “Relative composition of plasma proteins bound: FAS4-AD” value (FAS4-AD aggregates [5]) of the same substance?
Its value is 15.7 ± 4.6 % of total protein.

What about the “Relative composition of CSF proteins bound: αSN” value (αSN fibrils [6]; 4:1 w/w CSF protein:fibril) of the same substance?
The value was 2.7 ± 1.0 % of total protein.

What about the “Relative composition of plasma proteins bound: Ab1” value (Ab1 fibrils [7]) of the same substance?
Its value is 8.8 ± 0.9 % of total protein.

What about the “Relative composition of plasma proteins bound: Glucagon” value (glucagon fibrils [8]) of the same substance?
The value was 11.7 ± 1.4 % of total protein.

What about the “Relative composition of CSF proteins bound: Ab2” value (Ab2 fibrils [9]; 4:1 w/w CSF protein:fibril) of the same substance?
Its value is 2.9 ± 0.6 % of total protein.

And the “Relative composition of CSF proteins bound: C-36” value (C-36 fibrils [10]; 4:1 w/w CSF protein:fibril)?
Its value is 5.0 ± 1.6 % of total protein.

What about the “Relative composition of plasma proteins bound: αSN” value (αSN fibrils [11]) of the same substance?
Its value is 14.7 ± 3.0 % of total protein.

What about the “Identification status of CSF protein bound: FAS4-AD” value (FAS4-AD aggregates [12]) of the same substance?
Its value is “*”.

And the “Relative composition of CSF proteins bound: Ab1” value (Ab1 fibrils [13])?
The value was 3.9 ± 0.4 % of total protein.

Which results are given for “Apolipoprotein B-100: plasma protein bound to fibrils”?
Relative composition of plasma proteins bound: Ab2 (Ab2 fibrils [1]): 0.5 ± 0.2 % of total protein; Relative composition of plasma proteins bound: C-36 (C-36 fibrils [2]): 0.1 ± 0.0 % of total protein; contribution to the fibril interactomes [4]: 0.4%; Identification status of plasma protein bound: FAS4-AD (FAS4-AD aggregates [5]; symbol cells): *; Relative composition of plasma proteins bound: Ab1 (Ab1 fibrils [7]): 0.6 ± 0.1 % of total protein; Relative composition of plasma proteins bound: Glucagon (glucagon fibrils [8]): 0.4 ± 0.0 % of total protein; Relative composition of plasma proteins bound: αSN (αSN fibrils [11]): 0.2 ± 0.1 % of total protein

For “α1-antitrypsin: plasma/CSF protein bound to fibrils”, which “Relative composition of plasma proteins bound: Ab2” value (Ab2 fibrils [1]) is on record?
Its value is 0.4±0.0 % of total protein.

What about the “Identification status of plasma protein bound: C-36” value (C-36 fibrils [2]; symbol cells) of the same substance?
Its value is “*”.

What about the “Relative composition of CSF proteins bound: Glucagon” value (glucagon fibrils [3]) of the same substance?
Its value is 1.0 ± 0.2 % of total protein.

And the “Relative composition of plasma proteins bound: FAS4-AD” value (FAS4-AD aggregates [5])?
The value was 1.4 ± 0.5 % of total protein.

What about the “Identification status of CSF protein bound: αSN” value (αSN fibrils [6]; symbol cells) of the same substance?
Its value is “*”.

And the “Relative composition of plasma proteins bound: Ab1” value (Ab1 fibrils [7])?
The value was 0.4 ± 0.0 % of total protein.

What about the “Relative composition of plasma proteins bound: Glucagon” value (glucagon fibrils [8]) of the same substance?
The value was 0.6 ± 0.0 % of total protein.

And the “Identification status of CSF protein bound: Ab2” value (Ab2 fibrils [9]; symbol cells)?
The value was “*”.

What about the “Identification status of CSF protein bound: C-36” value (C-36 fibrils [10]; symbol cells) of the same substance?
The value was “*”.

What about the “Identification status of plasma protein bound: αSN” value (αSN fibrils [11]; symbol cells) of the same substance?
The value was “*”.

And the “Identification status of CSF protein bound: FAS4-AD” value (FAS4-AD aggregates [12])?
The value was “*”.

What about the “Relative composition of CSF proteins bound: Ab1” value (Ab1 fibrils [13]) of the same substance?
Its value is 0.5 ± 0.2 % of total protein.

Reference: publication PMC6405930, “Conservation of the Amyloid Interactome Across Diverse Fibrillar Structures” (Scientific Reports, 2019)
